Assay results from patent publication US7214663B2, “Tripeptide prodrug compounds” (Medarex, Inc., priority 2001, dated 2007).
Where two headings read alike, the source gives them in different places.

How the values were obtained:
[1] = Comparative metabolism in mice, plasma AUC
Method: (§3) Plasma was obtained from three individual animals in each group at 5 minutes, 1, 2, 4, or 6 hr.

[2] = system: HT-29 (colon carcinoma) cells; conditions: HT29, 48 hours, 3H-thymidine incorporation
Method: (§1) Adherent cells, LNCaP (prostate carcinoma), HT-29 (colon carcinoma) and PC-3 (prostate carcinoma), were cultured in DMEM media containing 10% heat inactivated fetal calf serum (FCS). On the day of the study the cells were detached from the plate with a trypsin solution. The collected cells were washed and resuspended at a concentration of 0.25×10^6 cells/ml in DMEM containing 10% FCS. 100 μl of cell suspension were added to 96 well plates and the plates were incubated for 3 hours to allow the cells to adhere. […] The plates were then incubated for 24 hours, pulsed with 10 μl of a 100 μCi/ml ^3H-thymidine and incubated for an additional 24 hours (total incubation time 48 hours). The plates were harvested using a 96 well Harvester (Packard Instruments) and counted on a Packard Top Count Counter. Four parameter logistic curves were fitted to the ^3H-thymidine incorporation as a function of drug molarity using Prism software to determine IC50 values.
(§2) Prostate carcinoma cells, LNCaP and PC-3 cells or colon carcinoma cells HT-29, were incubated with increasing concentration of the indicated compounds for 48 hours and cellular proliferation was measured using the ^3H-thymidine assay.

[3] = system: LNCaP (prostate carcinoma) cells; conditions: 48 hours, 3H-thymidine incorporation
Method: as §1, §2

[4] = system: PC-3 (prostate carcinoma) cells; conditions: PC-3, 48 hours, 3H-thymidine incorporation
Method: as §1, §2

[5] = SD-MTD studies, 60 days, normal mice (Example 14); conditions: mouse, in vivo
Method: In the single dose Maximum Tolerated Dose (SD-MTD) studies, groups of normal mice were administered intravenous bolus doses of the prodrug. The mice were observed daily for 60 days and body weights measured twice weekly. The SD-MTD was estimated to be equal to the highest dose that produced no death in mice after 60 days.

[6] = Repeat-dose tolerability / repeat dose MTD in tumor bearing mice; format: in vivo, mouse; conditions: mouse, in vivo, Table 12, re-analyzed
From the text: In one study, one animal in each dose group (n=8) was terminated as a possible drug-related toxicity death late in the study, at Days 58 and 57 in the low and high dose-groups respectively. The safety of the compound was evidenced by little body weight loss in either the high or low dose groups (less than 5% of the initial weight) during the 60-day observation period, in surviving animals (FIG. 14). In the other study, both the high and low dose were well tolerated. Only one animal in the high dose group (n=10) had over 15% of body weight loss at the end of the study (Day 61).
In repeat-dose studies in tumor bearing mice, groups of ten mice were dosed with various amounts of prodrug for a total of five doses at either five day or 1 week intervals. […] Thus, the prodrugs permit a much greater amount of therapeutic agent to be delivered to the body as a whole and thus to the vicinity of the target cell.

in vivo = conditions: female, ICR, mouse, iv, 100 umol/kg
Method: as §3

[7] = single IV bolus approximately 100 μmol/Kg, ICR mice
[8] = iv, Table 11, doses as first stated, intravenous bolus, 60 days, read-out: SD MTD

Row | SMILES | AUC ([1]; female, ICR, mouse, in vivo, iv, 100 umol/kg) [µM·h] | Dox, area under the plasma concentration time curve ([1]; single IV bolus approximately 100 μmol/Kg of prodrug, ICR mice) [µM·h] | AL-Dox or AG-DOX, area under the plasma concentration time curve [1, 7] [µM·h] | L-Dox or G-Dox, area under the plasma concentration time curve [1, 7] [µM·h] | IC50 [2] [µM] | IC50 [3] [µM] | IC50 [4] [µM] | MTD at 60 day ([5]; intravenous, SD MTD (mg/kg), value in parentheses (doxorubicin equivalent dose), Table 11, doses as first stated) [mg/kg] | MTD at 60 day ([5]; intravenous, SD MTD (mg/kg), value in parentheses: doxorubicin equivalent dose, Table 12, re-analyzed data and new data) [mg/kg] | MTD at 60 day ([5]; intravenous, Table 12, re-analyzed data and new data, read-out: SD MTD) [mg/kg] | MTD at 60 day [5, 8] [mg/kg] | MTD ([6]; Repeat Dose MTD (mg/kg), value in parentheses: doxorubicin equivalent dose, Q 5 D × 5 or Q 7 D × 5) [mg/kg] | MTD ([6]; Q 5 D × 5 or Q 7 D × 5 as given per compound, read-out: Repeat Dose MTD) [mg/kg] | AUC (in vivo) [µM·h] | MTD ([5]; SD MTD (mg/kg), value in parentheses (doxorubicin equivalent dose), Table 11, doses as first stated) [mg/kg] | MTD ([5]; SD MTD (mg/kg), value in parentheses: doxorubicin equivalent dose, Table 12, re-analyzed data and new data) [mg/kg] | MTD ([5]; Table 12, re-analyzed data and new data, read-out: SD MTD) [mg/kg] | MTD [5, 8] [mg/kg]
1 | CC[C@H](C)[C@H](NC(=O)CCC(=O)O)C(=O)N[C@@H](C)C(=O)N[C@@H](CC(C)C)C(=O)N[C@H]1C[C@H](O[C@H]2C[C@](O)(C(=O)CO)Cc3c(O)c4c(c(O)c32)C(=O)c2c(OC)cccc2C4=O)O[C@@H](C)[C@H]1O [Suc-Ile-Ala-Leu-Dox] | 452 | 0.9 | 1.0 | 6.2 | 47 | 1.1 | 88 | – | – | – | – | – | – | – | – | – | – | –
2 | COc1cccc2c1C(=O)c1c(O)c3c(c(O)c1C2=O)C[C@@](O)(C(=O)CO)C[C@@H]3O[C@H]1C[C@H](NC(=O)[C@H](CC(C)C)NC(=O)[C@H](Cc2ccc(O)cc2)NC(=O)[C@H](CC(C)C)NC(=O)CCC(=O)O)[C@H](O)[C@H](C)O1 [Suc-Leu-Tyr-Leu-Dox] | – | – | – | – | 42 | 9.4 | 51 | > 70 | > 70 | > 128 | > 128 | – | – | – | – | – | – | –
3 | COc1cccc2c1C(=O)c1c(O)c3c(c(O)c1C2=O)C[C@@](O)(C(=O)CO)C[C@@H]3O[C@H]1C[C@H](NC(=O)[C@H](CC(C)C)NC(=O)[C@H](C)NC(=O)[C@H](CC(C)C)NC(=O)CCNC(=O)CCC(=O)O)[C@H](O)[C@H](C)O1 [Suc-βAla-Leu-Ala-Leu-Dox, reference compound] | – | – | – | – | – | – | – | – | – | – | – | 32 | 57 | 806 | 42 | 28 | 50 | 75
